Source: patent publication US20230190875A1 (ACCELERON PHARMA, published 2023)

T1: BMP6 (UniProt P22004 382-513, limits assumed)
T1 sequence (looked up): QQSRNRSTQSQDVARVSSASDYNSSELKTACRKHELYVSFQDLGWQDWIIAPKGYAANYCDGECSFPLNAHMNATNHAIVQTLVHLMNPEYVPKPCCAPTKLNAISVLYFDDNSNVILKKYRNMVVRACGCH

T2: activin A (UniProt P08476 311-426)
T2 sequence (looked up): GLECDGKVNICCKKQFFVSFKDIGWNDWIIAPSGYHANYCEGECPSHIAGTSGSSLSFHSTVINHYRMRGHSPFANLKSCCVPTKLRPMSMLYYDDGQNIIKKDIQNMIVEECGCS

T3: activin B (UniProt P09529 293-407)
T3 sequence (looked up): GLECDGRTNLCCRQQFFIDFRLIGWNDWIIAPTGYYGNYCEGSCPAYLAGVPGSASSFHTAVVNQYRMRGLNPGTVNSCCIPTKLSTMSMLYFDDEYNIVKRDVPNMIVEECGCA

B1: ActRIIB homodimer Fc fusion (Fc fusion, UniProt Q13705 20-134, looked up)
chain: GRGEAETRECIYYNANWELERTNQSGLERCEGEQDKRLHCYASWRNSSGTIELVKKGCWLDDFNCYDRQECVATEENPQVYFCCCEGNFCNERFTHLPEAGGPEVTYEPPPTAPT
notes: Comparator; also called homodimeric ActRIIB Fc fusion; homomeric ActRIIB-Fc; not shown: linker and Fc domain of the homodimer are not described

Legend:
Assay in all cases: SPR (Biacore); Fc fusion captured by anti-Fc antibody, ligand injected
[1] = target: T1, BMP6
Protocol: (§1) A Biacore™-based binding assay was used to compare ligand binding selectivity of the single-arm ActRIIB heterodimer Fc fusion described above with that of ActRIIB homodimer Fc fusion. Single-arm ActRIIB […] Fc fusion and ActRIIB homodimer Fc fusion were independently captured onto the system using an anti-Fc antibody. Ligands were injected and allowed to flow over the captured receptor protein.

[2] = target: T2, activin A
Protocol: as §1

[3] = target: T3, activin B
Protocol: as §1

[4] = target: B1
Protocol: as §1

[5] = target: T4, ActRIIA homodimer Fc fusion (UniProt P27037 21-135)
T4 construct: Comparator; also called homodimeric ActRIIA Fc fusion; not shown: linker and Fc domain of the homodimer are not described
T4 sequence (P27037 21-135): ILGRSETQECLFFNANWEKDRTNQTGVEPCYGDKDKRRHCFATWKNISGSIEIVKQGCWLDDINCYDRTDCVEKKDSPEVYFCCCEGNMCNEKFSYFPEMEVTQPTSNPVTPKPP
Protocol: A Biacore™-based binding assay was used to compare ligand binding selectivity of the single-arm ActRIIA heterodimer Fc fusions described above with that of an ActRIIA homodimer Fc fusion. The single-arm ActRIIA heterodimer Fc fusions and ActRIIA homodimer Fc fusions were independently captured onto the system using an anti-Fc antibody. Ligands were injected and allowed to flow over the captured receptor protein.

Kd [4] [nM]	koff [4] [s⁻¹]	kon [4] [M⁻¹ s⁻¹]	Kd [5] [nM]	kon [5] [M⁻¹ s⁻¹]	Binder	also measured
					B1	Kd [1]: 0.21 nM; koff [1]: 0.0068 s⁻¹; kon [1]: 3.2e+07 M⁻¹ s⁻¹; Kd [2]: 0.019 nM; koff [2]: 0.00023 s⁻¹; kon [2]: 1.2e+07 M⁻¹ s⁻¹; Kd [3]: 0.02 nM; koff [3]: 0.0001 s⁻¹; kon [3]: 5.1e+06 M⁻¹ s⁻¹
1.5	0.0022	1.4e+06			GDF3 (ligand, UniProt Q9NR23 251-364, looked up, also called VGR2) AAIPVPKLSCKNLCHRHQLFINFRDLGWHKWIIAPKGFMANYCHGECPFSLTISLNSSNYAFMQALMHAVDPEIPQAVCIPTKLSPISMLYQDNNDNVILRHYEDMVVDECGCG	
0.002	0.00011	5e+07	0.028	2.6e+07	GDF11 (ligand, UniProt O95390 299-407, looked up, also called BMP11) NLGLDCDEHSSESRCCRYPLTVDFEAFGWDWIIAPKRYKANYCSGQCEYMFMQKYPHTHLVQQANPRGSAGPCCTPTKMSPINMLYFNDKQQIIYGKIPGMVVDRCGCS	koff [5]: 0.00072 s⁻¹
0.078	0.0011	1.4e+07			BMP9 (ligand, UniProt Q9UK05 320-429, looked up, also called GDF2) SAGAGSHCQKTSLRVNFEDIGWDSWIIAPKEYEAYECKGGCFFPLADDVTPTKHAIVQTLVHLKFPTKVGKACCVPTKLSPISVLYKDDMGVPTLKYHYEGMSVAECGCR	
0.011	0.00026	2.3e+07	0.086	2.9e+07	BMP10 (ligand, UniProt O95393 317-424, looked up) NAKGNYCKRTPLYIDFKEIGWDSWIIAPPGYEAYECRGVCNYPLAEHLTPTKHAIIQALVHLKNSQKASKACCVPTKLEPISILYLDKGVVTYKFKYEGMAVSECGCR	
